Values belong to the substance of their own block, whether it stands above or below them.
Legend:
[1] = molecular target: human transferrin receptor, membrane form (human) (UniProt P02786); assay: FACS, OKT9 on SK-MEL-28 cells after PI-PLC treatment, against untreated stained cells
[2] = molecular target: human transferrin receptor, membrane form (human) (UniProt P02786); assay: FACS, OKT9 on SK-MEL-28 cells after Pronase treatment, against untreated stained cells
[3] = molecular target: Thy-1 on EL-4 mouse lymphoma cells (mouse) (UniProt P01831); assay: FACS, T24/37.1 on EL-4 cells after PI-PLC treatment, against untreated stained cells
[4] = molecular target: Thy-1 on EL-4 mouse lymphoma cells (mouse) (UniProt P01831); assay: FACS, T24/37.1 on EL-4 cells after Pronase treatment, against untreated stained cells
[5] = molecular target: human p97 (melanotransferrin), GPI-anchored membrane form (human) (UniProt P08582); assay: FACS on SK-MEL-28 cells; L235 hybridoma supernatant, goat anti-mouse IgG-FITC
[6] = molecular target: human p97 (melanotransferrin), GPI-anchored membrane form (human) (UniProt P08582); assay: FACS, L235 on SK-MEL-28 cells after PI-PLC treatment, against untreated stained cells
[7] = molecular target: human p97 (melanotransferrin), GPI-anchored membrane form (human) (UniProt P08582); assay: FACS, L235 on p97aWTBc3 cells after PI-PLC treatment, against untreated stained cells
[8] = molecular target: human p97 (melanotransferrin), GPI-anchored membrane form (human) (UniProt P08582); assay: FACS, L235 on p97aWTBc7 cells after PI-PLC treatment, against untreated stained cells
[9] = molecular target: human p97 (melanotransferrin), GPI-anchored membrane form (human) (UniProt P08582); assay: FACS, L235 on SK-MEL-28 cells after Pronase treatment, against untreated stained cells
[10] = molecular target: human p97 (melanotransferrin), GPI-anchored membrane form (human) (UniProt P08582); assay: FACS on Sf9 cells infected with p97 B-1-1, pre-incubated with PI-PLC; L235 supernatant, goat anti-mouse IgG-FITC
[11] = molecular target: human p97 (melanotransferrin), GPI-anchored membrane form (human) (UniProt P08582); assay: FACS on Sf9 cells infected with p97 B-2-1, pre-incubated with PI-PLC; L235 supernatant, goat anti-mouse IgG-FITC
[12] = molecular target: human p97 (melanotransferrin), GPI-anchored membrane form (human) (UniProt P08582); assay: FACS on Sf9 cells infected with p97 recombinant baculovirus p97 B-1-1; L235 supernatant, goat anti-mouse IgG-FITC
[13] = molecular target: human p97 (melanotransferrin), GPI-anchored membrane form (human) (UniProt P08582); assay: FACS on Sf9 cells infected with p97 recombinant baculovirus p97 B-2-1; L235 supernatant, goat anti-mouse IgG-FITC
[14] = molecular target: human p97 (melanotransferrin), GPI-anchored membrane form (human) (UniProt P08582); assay: FACS on SK-MEL-28 cells pre-incubated with PI-PLC (60 min, 37 C), which removes p97; L235 supernatant, goat anti-mouse IgG-FITC

Sequence of UniProt P08582 (P08582 20-709): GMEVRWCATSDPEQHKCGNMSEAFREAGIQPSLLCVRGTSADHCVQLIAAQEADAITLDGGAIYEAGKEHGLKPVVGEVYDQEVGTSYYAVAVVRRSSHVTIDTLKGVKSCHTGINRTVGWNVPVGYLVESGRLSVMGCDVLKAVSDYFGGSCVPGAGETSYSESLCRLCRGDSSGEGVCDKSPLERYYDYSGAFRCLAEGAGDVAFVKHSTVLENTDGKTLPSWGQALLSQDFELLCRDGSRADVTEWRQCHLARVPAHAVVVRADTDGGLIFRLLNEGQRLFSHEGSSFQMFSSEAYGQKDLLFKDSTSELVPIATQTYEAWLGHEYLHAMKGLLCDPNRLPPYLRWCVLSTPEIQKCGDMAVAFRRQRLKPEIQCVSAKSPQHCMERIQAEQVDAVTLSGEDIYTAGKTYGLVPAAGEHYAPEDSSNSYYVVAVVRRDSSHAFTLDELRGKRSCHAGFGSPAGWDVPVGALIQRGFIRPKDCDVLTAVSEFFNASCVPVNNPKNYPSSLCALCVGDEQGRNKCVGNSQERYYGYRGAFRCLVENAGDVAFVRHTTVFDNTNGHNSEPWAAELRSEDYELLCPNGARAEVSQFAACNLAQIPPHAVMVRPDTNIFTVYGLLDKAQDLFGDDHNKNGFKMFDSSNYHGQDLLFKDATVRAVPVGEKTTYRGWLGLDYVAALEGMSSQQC
Sequence of UniProt P02786 (P02786 whole entry): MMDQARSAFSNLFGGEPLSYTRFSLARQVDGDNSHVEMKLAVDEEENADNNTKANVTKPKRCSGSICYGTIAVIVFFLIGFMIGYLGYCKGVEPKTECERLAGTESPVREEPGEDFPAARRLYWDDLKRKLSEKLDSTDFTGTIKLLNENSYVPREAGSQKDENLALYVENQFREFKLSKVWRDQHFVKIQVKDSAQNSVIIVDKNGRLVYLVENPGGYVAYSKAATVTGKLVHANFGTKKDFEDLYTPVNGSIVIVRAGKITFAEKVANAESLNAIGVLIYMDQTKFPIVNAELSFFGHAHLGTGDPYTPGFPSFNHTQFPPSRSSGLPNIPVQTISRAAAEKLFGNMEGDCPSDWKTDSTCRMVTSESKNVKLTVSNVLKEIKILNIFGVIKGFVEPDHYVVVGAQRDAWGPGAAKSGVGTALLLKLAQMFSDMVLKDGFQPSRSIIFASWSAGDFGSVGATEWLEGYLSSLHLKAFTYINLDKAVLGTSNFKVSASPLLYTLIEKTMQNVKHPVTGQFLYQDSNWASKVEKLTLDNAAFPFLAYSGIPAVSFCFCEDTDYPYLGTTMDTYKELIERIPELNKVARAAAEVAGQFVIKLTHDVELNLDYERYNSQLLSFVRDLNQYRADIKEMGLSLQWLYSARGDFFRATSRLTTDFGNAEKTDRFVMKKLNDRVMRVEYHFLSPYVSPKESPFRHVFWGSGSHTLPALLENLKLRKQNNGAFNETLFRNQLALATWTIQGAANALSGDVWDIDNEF
Sequence of UniProt P01831 (P01831 20-131): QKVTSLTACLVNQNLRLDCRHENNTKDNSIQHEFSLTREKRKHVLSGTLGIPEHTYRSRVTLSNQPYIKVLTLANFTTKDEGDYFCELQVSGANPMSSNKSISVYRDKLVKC

Fluorescene Intensity (% of Control) [1]: 120 % of Control
Fluorescene Intensity (% of Control) [2]: 15.9 % of Control
Substance: OKT9 anti-human transferrin receptor monoclonal antibody

Fluorescene Intensity (% of Control) [3]: 32.5 % of Control
Fluorescene Intensity (% of Control) [4]: 136 % of Control
Substance: T24/37.1 MAb (anti-Thy-1) (antibody)

FLUORESCENCE - converted linear value (converted linear value) [5]: 128
Fluorescene Intensity (% of Control) [6]: 10.8 % of Control
Fluorescene Intensity (% of Control) [7]: 6.8 % of Control
Fluorescene Intensity (% of Control) [8]: 7.5 % of Control
Fluorescene Intensity (% of Control) [9]: 82.6 % of Control
FLUORESCENCE - converted linear value (converted linear value) [10]: 5.74
FLUORESCENCE - converted linear value (converted linear value) [11]: 6.85
FLUORESCENCE - converted linear value (converted linear value) [12]: 112
FLUORESCENCE - converted linear value (converted linear value) [13]: 97.4
FLUORESCENCE - converted linear value (converted linear value) [14]: 4.52
Substance: L235 anti-human p97 monoclonal antibody
